Biological target: Homo sapiens selenoprotein S U188C (human) (UniProt Q9BQE4)
Assay: SEC

stoichiometry N: 2
Substance: Homo sapiens selenoprotein S U188C (from UniProt Q9BQE4 1-189) (natural protein)
